Test results published in patent US20220098307A1 (WUHAN YZY BIOPHARMA, published 2022).

Legend:
Human BCMA = molecular target: T1, Human BCMA (human, UniProt Q02223 1-54); assay: flow cytometry, human tumor cells (table of the BCMA series)
T1 sequence: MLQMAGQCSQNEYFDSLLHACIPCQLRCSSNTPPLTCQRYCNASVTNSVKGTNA
Description: 1) Cell preparation: T cells isolated from CD3-positive human whole blood were used for a CD3 end affinity detection of multifunctional antibody molecule; positive tumor cells of corresponding antigen were used for detecting affinity of tumor antigen; for example, CD38-positive MM. 1S cells (purchased from the Cell Resource Center of Shanghai Institutes for Biological Sciences, Chinese Academy of Sciences) or RPMI 8226 cells (purchased from the Cell Resource Center of Shanghai Institutes for Biological Sciences, Chinese Academy of Sciences) were used for CD38 antigen detection, and PD-L1 positive H358 cells (purchased from the Cell Resource Center of Shanghai Institutes for Biological Sciences, Chinese Academy of Sciences) were used for PD-L1 antigen detection, and so on. The cells were resuspended with 1% FBS-PBS, adjusted to a density of 4×10⁶/ml, and 50 μl of cells were taken from each well, and then plated at 2×10⁵ per well. Cell plating was operated on ice
2) Addition of the antibody: according to the experimental design, the antibody was diluted gradually, and dilution of antibody was operated on ice. For example, the initial concentration of antibody for dilution was 3000 nM, and the antibody was diluted by 3 times with 11 concentration gradients. The diluted antibody was added to a cell well at 50 μl per well, mixed well, and shaked and incubated at 4° C. 1100 rpm/min for 2 h; after washing, the cells were resuspend in 1% FBS-PBS, and a diluted secondary antibody PE anti-human IgG FC (Biolegend, 409304) was added with a final concentration of 8 ug/ml and a volume of 50 μl/well. At the same time, a well only added with cells and secondary antibody was set as a control, the components were mixed well, and incubated under shaking at 1100 rpm/min at 4° C. for 1 h;
5) Data analysis: the data was analyzed by a flow analysis software FlowJo 7.6 thereby obtaining an average fluorescence intensity of the specific antibody concentration, plotted by a Graphpad Prism 5 with the antibody concentration (nM) as an abscissa and the average fluorescence intensity as an ordinate; the EC50 value was calculated by the method of One site—Specific binding, and the EC50 value indicated the cell affinity of the antibody to the corresponding target antigen.

Monkey CD3 = molecular target: T2, Monkey CD3 (monkey); assay: flow cytometry, monkey T cells
T2 construct: whole, on cells; also called CD3 of monkey CD3 positive T cells

Human CD3ε = molecular target: T3, Human CD3ε (human, UniProt P07766 23-126); assay: flow cytometry, human T cells
T3 construct: CD3 on T cells isolated from human whole blood
Summary of the method: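 Mean fluorescence intensity by flow cytometry was plotted against antibody concentration; EC50 came from a one site–specific binding fit. Cells (2×10⁵/well) were incubated with 11-point, 3-fold antibody dilutions starting at 3000 nM for 2 h at 4° C, then with PE anti-human IgG Fc for 1 h.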

| Binder | binding result (Human BCMA) | EC50 (Monkey CD3) [nM] | EC50 (Human CD3ε) [nM] |
| --- | --- | --- | --- |
| M2IC-NA (bispecific antibody, human IgG1, kappa, N297A, structure 2 isotype control; CH2 N297A) EVKLDETGGGLVQPGRPMKLSCVASGFTFSDYWMNWVRQSPEKGLEWVAQIRNKPYNYETYYSDSVKGRFTISRDDSKSSVYLQMNNLRVEDMGIYYCTGSYYGMDYWGQGTSVTVSSASTKGPSVFPLAPSSKSTSGGTAALGCLVKDYFPEPVTVSWNSGALTSGVHTFPAVLQSSGLYSLSSVVTVPSSSLGTQTYICNVNHKPSNTKVDKKVEPKSCDKTHTGGGSAAAQVQLVESGGGVVQPGRSLRLSCAASGFTFSTYAMNWVRQAPGKGLEWVARIRSKYNNYATYYADSVKDRFTISRDDSKNTLYLQMNSLRAEDTAVYYCARHGNFGNSYVSWFAYWGQGTLVTVSSGGGGSGGGGSGGGGSQTVVTQEPSLTVSPGGTVTLTCRSSTGAVTTSNYANWVQQKPGQAPRGLIGGTNKRAPGVPARFSGSLLGGKAALTLSGVQPEDEAEYYCALWYSNLWVFGGGTKVEIKGGGGSDKTHTCPPCPAPELLGGPSVFLFPPKPKDTLMISRTPEVTCVVVDVSHEDPEVKFNWYVDGVEVHNAKTKPREEQYASTYRVVSVLTVLHQDWLNGKEYKCKVSNKALPAPIEKTISKAKGQPREPQVYTLPPCRDELTKNQVSLWCLVKGFYPSDIAVEWESNGQPENNYKTTPPVLDSDGSFFLYSKLTVDKSRWQQGNVFSCSVMHEALHNHYTQKSLSLSPGK heavy: EVKLDETGGGLVQPGRPMKLSCVASGFTFSDYWMNWVRQSPEKGLEWVAQIRNKPYNYETYYSDSVKGRFTISRDDSKSSVYLQMNNLRVEDMGIYYCTGSYYGMDYWGQGTSVTVSSASTKGPSVFPLAPSSKSTSGGTAALGCLVKDYFPEPVTVSWNSGALTSGVHTFPAVLQSSGLYSLSSVVTVPSSSLGTQTYICNVNHKPSNTKVDKKVEPKSCDKTHTCPPCPAPELLGGPSVFLFPPKPKDTLMISRTPEVTCVVVDVSHEDPEVKFNWYVDGVEVHNAKTKPREEQYASTYRVVSVLTVLHQDWLNGKEYKCKVSNKALPAPIEKTISKAKGQPREPQVCTLPPSRDELTKNQVSLSCAVKGFYPSDIAVEWESNGQPENNYKTTPPVLDSDGSFFLVSKLTVDKSRWQQGNVFSCSVMHEALHNRFTQKSLSLSPGK light: DVVMTQTPLSLPVSLGDQASISCRSSQSLVHSNGNTYLRWYLQKPGQSPKVLIYKVSNRFSGVPDRFSGSGSGTDFTLKISRVEAEDLGVYFCSQSTHVPWTFGGGTKLEIKRTVAAPSVFIFPPSDEQLKSGTASVVCLLNNFYPREAKVQWKVDNALQSGNSQESVTEQDSKDSTYSLSSTLTLSKADYEKHKVYACEVTHQGLSSPVTKSFNRGEC | no binding | 561 | 547 |
| M2IC-G2 (bispecific antibody, human IgG1, kappa, structure 2 isotype control; CH2 G2CH2) EVKLDETGGGLVQPGRPMKLSCVASGFTFSDYWMNWVRQSPEKGLEWVAQIRNKPYNYETYYSDSVKGRFTISRDDSKSSVYLQMNNLRVEDMGIYYCTGSYYGMDYWGQGTSVTVSSASTKGPSVFPLAPSSKSTSGGTAALGCLVKDYFPEPVTVSWNSGALTSGVHTFPAVLQSSGLYSLSSVVTVPSSSLGTQTYICNVNHKPSNTKVDKKVEPKSCDKTHTGGGSAAAQVQLVESGGGVVQPGRSLRLSCAASGFTFSTYAMNWVRQAPGKGLEWVARIRSKYNNYATYYADSVKDRFTISRDDSKNTLYLQMNSLRAEDTAVYYCARHGNFGNSYVSWFAYWGQGTLVTVSSGGGGSGGGGSGGGGSQTVVTQEPSLTVSPGGTVTLTCRSSTGAVTTSNYANWVQQKPGQAPRGLIGGTNKRAPGVPARFSGSLLGGKAALTLSGVQPEDEAEYYCALWYSNLWVFGGGTKVEIKGGGGSDKTHTCPPCPAPPVAGPSVFLFPPKPKDTLMISRTPEVTCVVVDVSHEDPEVQFNWYVDGVEVHNAKTKPREEQFNSTFRVVSVLTVVHQDWLNGKEYKCKVSNKGLPAPIEKTISKTKGQPREPQVYTLPPCRDELTKNQVSLWCLVKGFYPSDIAVEWESNGQPENNYKTTPPVLDSDGSFFLYSKLTVDKSRWQQGNVFSCSVMHEALHNHYTQKSLSLSPGK heavy: EVKLDETGGGLVQPGRPMKLSCVASGFTFSDYWMNWVRQSPEKGLEWVAQIRNKPYNYETYYSDSVKGRFTISRDDSKSSVYLQMNNLRVEDMGIYYCTGSYYGMDYWGQGTSVTVSSASTKGPSVFPLAPSSKSTSGGTAALGCLVKDYFPEPVTVSWNSGALTSGVHTFPAVLQSSGLYSLSSVVTVPSSSLGTQTYICNVNHKPSNTKVDKKVEPKSCDKTHTCPPCPAPPVAGPSVFLFPPKPKDTLMISRTPEVTCVVVDVSHEDPEVQFNWYVDGVEVHNAKTKPREEQFNSTFRVVSVLTVVHQDWLNGKEYKCKVSNKGLPAPIEKTISKTKGQPREPQVCTLPPSRDELTKNQVSLSCAVKGFYPSDIAVEWESNGQPENNYKTTPPVLDSDGSFFLVSKLTVDKSRWQQGNVFSCSVMHEALHNRFTQKSLSLSPGK light: DVVMTQTPLSLPVSLGDQASISCRSSQSLVHSNGNTYLRWYLQKPGQSPKVLIYKVSNRFSGVPDRFSGSGSGTDFTLKISRVEAEDLGVYFCSQSTHVPWTFGGGTKLEIKRTVAAPSVFIFPPSDEQLKSGTASVVCLLNNFYPREAKVQWKVDNALQSGNSQESVTEQDSKDSTYSLSSTLTLSKADYEKHKVYACEVTHQGLSSPVTKSFNRGEC | no binding | 488 | 408 |
| M2IC-AG2 (bispecific antibody, human IgG1, kappa, structure 2 isotype control; CH2 AG2CH2) EVKLDETGGGLVQPGRPMKLSCVASGFTFSDYWMNWVRQSPEKGLEWVAQIRNKPYNYETYYSDSVKGRFTISRDDSKSSVYLQMNNLRVEDMGIYYCTGSYYGMDYWGQGTSVTVSSASTKGPSVFPLAPSSKSTSGGTAALGCLVKDYFPEPVTVSWNSGALTSGVHTFPAVLQSSGLYSLSSVVTVPSSSLGTQTYICNVNHKPSNTKVDKKVEPKSCDKTHTGGGSAAAQVQLVESGGGVVQPGRSLRLSCAASGFTFSTYAMNWVRQAPGKGLEWVARIRSKYNNYATYYADSVKDRFTISRDDSKNTLYLQMNSLRAEDTAVYYCARHGNFGNSYVSWFAYWGQGTLVTVSSGGGGSGGGGSGGGGSQTVVTQEPSLTVSPGGTVTLTCRSSTGAVTTSNYANWVQQKPGQAPRGLIGGTNKRAPGVPARFSGSLLGGKAALTLSGVQPEDEAEYYCALWYSNLWVFGGGTKVEIKGGGGSDKTHTCPPAPAPPVAGPSVFLFPPKPKDTLMISRTPEVTCVVVDVSHEDPEVQFNWYVDGVEVHNAKTKPREEQFNSTFRVVSVLTVVHQDWLNGKEYKCKVSNKGLPAPIEKTISKTKGQPREPQVYTLPPCRDELTKNQVSLWCLVKGFYPSDIAVEWESNGQPENNYKTTPPVLDSDGSFFLYSKLTVDKSRWQQGNVFSCSVMHEALHNHYTQKSLSLSPGK heavy: EVKLDETGGGLVQPGRPMKLSCVASGFTFSDYWMNWVRQSPEKGLEWVAQIRNKPYNYETYYSDSVKGRFTISRDDSKSSVYLQMNNLRVEDMGIYYCTGSYYGMDYWGQGTSVTVSSASTKGPSVFPLAPSSKSTSGGTAALGCLVKDYFPEPVTVSWNSGALTSGVHTFPAVLQSSGLYSLSSVVTVPSSSLGTQTYICNVNHKPSNTKVDKKVEPKSCDKTHTCPPAPAPPVAGPSVFLFPPKPKDTLMISRTPEVTCVVVDVSHEDPEVQFNWYVDGVEVHNAKTKPREEQFNSTFRVVSVLTVVHQDWLNGKEYKCKVSNKGLPAPIEKTISKTKGQPREPQVCTLPPSRDELTKNQVSLSCAVKGFYPSDIAVEWESNGQPENNYKTTPPVLDSDGSFFLVSKLTVDKSRWQQGNVFSCSVMHEALHNRFTQKSLSLSPGK light: DVVMTQTPLSLPVSLGDQASISCRSSQSLVHSNGNTYLRWYLQKPGQSPKVLIYKVSNRFSGVPDRFSGSGSGTDFTLKISRVEAEDLGVYFCSQSTHVPWTFGGGTKLEIKRTVAAPSVFIFPPSDEQLKSGTASVVCLLNNFYPREAKVQWKVDNALQSGNSQESVTEQDSKDSTYSLSSTLTLSKADYEKHKVYACEVTHQGLSSPVTKSFNRGEC | no binding | 607 | 535 |
